Activity data for 1 substance are collected here from patent US9290800.

The target of this data set is T1, M2Y DNA polymerase-His10 (polymerase A) (Bacteriophage M2Y) (UniProt P19894).
T1 sequence: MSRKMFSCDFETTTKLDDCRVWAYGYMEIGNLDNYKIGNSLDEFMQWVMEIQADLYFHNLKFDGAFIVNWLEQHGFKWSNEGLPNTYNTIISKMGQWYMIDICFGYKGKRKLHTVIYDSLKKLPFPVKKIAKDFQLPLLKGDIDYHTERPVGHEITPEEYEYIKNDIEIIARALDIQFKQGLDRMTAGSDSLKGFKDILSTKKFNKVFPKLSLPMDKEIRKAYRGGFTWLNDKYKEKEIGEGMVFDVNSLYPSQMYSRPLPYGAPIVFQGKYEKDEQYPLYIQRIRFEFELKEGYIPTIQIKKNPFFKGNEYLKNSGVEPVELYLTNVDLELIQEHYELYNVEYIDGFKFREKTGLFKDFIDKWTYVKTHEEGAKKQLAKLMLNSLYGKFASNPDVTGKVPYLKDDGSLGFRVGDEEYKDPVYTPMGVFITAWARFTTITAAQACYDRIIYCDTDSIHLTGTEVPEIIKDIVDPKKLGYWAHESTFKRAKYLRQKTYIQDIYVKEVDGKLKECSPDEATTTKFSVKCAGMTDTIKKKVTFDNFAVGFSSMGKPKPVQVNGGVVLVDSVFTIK
Conditions: average amplification per round over two rounds.

In turn, FMR1 genomic fragment SMRTbell gave an activity of 177 fold.
